Test [1] concerns the target T1, R2-IgD4-5 (human, UniProt P35968).
T1 construct: recombinant fragment; also called immunoglobin-like domains 4-5 of VEGFR2
Put plainly: cell-based competitive ELISA: R2C7-1 absorbed with the soluble domains, then bound to fixed 293T/VEGFR2 cells, OD405. The protocol:
The optimal concentration of R2C7-1 and R2C9-11 mAbs (200 μg/mL and 50 μg/mL, respectively) were absorbed with the designated doses of the individual immunoglobin-like domains of VEGFR2 (R2-IgDs) antigens. After, the fixed 293T/VEGFR2 cells were incubated with the absorbed antibodies at 37° C. for 30 min. The bound antibodies were probed with goat-anti-mouse IgG conjugated with HRP, visualized by addition of ABTS, and measured at OD₄₀₅ using the SpectraMax microplate reader. Data are represented as means±S.D. of the percentage of isotype control (CTL) in triplicate. The potential epitope locations of R2C7-1 (upper) and R2C9-11 (lower) on the VEGFR2 antigen are indicated by black lines spanning IgD6 and IgD7 in the schematics.
To define the recognition epitopes of R2C7-1 and R2C9-11 antibodies, cell-based competitive enzyme-linked immunosorbent assay (ELISA) was performed. HEK293T/VEGFR2 transfectants (5 X×10⁴/well) were coated and fixed on 96-well plates. The optimal concentrations, the highest concentration of the log phase, of R2C7-1 and R2C9-11 antibodies for binding to the cells, were determined using a standard ELISA procedure (data not shown). […]
The epitopes of R2C7-1 and R2C9-11 anti-VEGFR2 antibodies were determined by cell-based competitive ELISA. […]

Test [2] concerns the target T2, VEGFR3 IgD3-4 (UniProt P35916 219-415, limits assumed).
T2 construct: domain: IgD3-4; also called VEGFR3-ED Ig D3-4-myc; not shown: myc tag (pCMV6-XL6-myc vector)
T2 sequence (looked up): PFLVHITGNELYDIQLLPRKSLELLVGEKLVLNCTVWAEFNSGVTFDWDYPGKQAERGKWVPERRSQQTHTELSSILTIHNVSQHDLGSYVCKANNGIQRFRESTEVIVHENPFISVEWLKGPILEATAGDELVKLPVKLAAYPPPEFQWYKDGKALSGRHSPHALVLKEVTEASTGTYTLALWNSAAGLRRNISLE
Put plainly: native PAGE of the purified myc-tagged fragment, blot probed with R2C9-11. Here is the method: FIG. 11 is a set of graphs showing determination of the binding epitopes of R2C7-1 and R2C9-11 antibodies on VEGFR3 antigen. Panel A, Cell-based competitive. ELISA. HEK293T cells expressing VEGFR3 (293T/VEGFR3) were coated in 96-well plates. The optimal concentrations of R2C7-1 and R2C9-11 mAbs were determined as described previously (data now shown). The optimal concentrations of R2C7-1 and R2C9-11 mAbs were absorbed with the designed doses of the individual immunoglobin-like domains of VEGFR3 (R3-IgDs) antigens, as indicated. The bound antibodies were immune-probed with secondary antibody conjugated with HRP, visualized by addition of ABTS, and measured at OD₄₀₅ using a microplate reader (SpectraMax). Data are represented as means±S.D. of percentage of isotype control (CTL) in triplicate. The epitope locations of R2C7-1 and R2C9-11 on the VEGFR3 antigen are indicated by the black lines spanning IgD6 in the schematics. Panel B, Native gel electrophoresis. The whole extracellular domain (R3-IgD1-7), domain 3-4 (R3-IgD3-4) and domain 6-7 (R3-IgD6-7) were constructed, expressed in the E. coli, and purified using the anti-Myc affinity purification system. […] The binding of R2C7-1 and R2C9-11 to the VEGFR3 truncated antigens was evaluated with native gel electrophoresis to confirm the epitopes of R2C7-1 and R2C9-11 mAbs (middle and right, respectively). […]

T1 sequence (P35968 328-548 limits assumed): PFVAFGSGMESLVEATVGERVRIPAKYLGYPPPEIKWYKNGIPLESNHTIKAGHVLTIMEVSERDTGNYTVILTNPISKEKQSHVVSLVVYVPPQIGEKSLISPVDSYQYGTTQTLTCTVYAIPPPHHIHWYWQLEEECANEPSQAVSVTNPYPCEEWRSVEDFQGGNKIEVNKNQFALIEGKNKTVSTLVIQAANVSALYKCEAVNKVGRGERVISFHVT

B1: R2C7-1 monoclonal antibody (antibody, V domains shown)
VH: EVQLQQSGPELVKPGASVKISCKASGYSFTDYFINWVIQRHGKSLEWVGRINPYNGGSFYNQKFKDKATLTVDKSSNIAHMELRSLASEDSAIYYCARSGGNGYDYWGQGTTLTVSS
VL: DIVMTQAAPSVPVIPGESVSISCRSSKSLLHSNGNTYLYWFLQRPGQSPQLLIYRMSNLASGVPDRFSGSGSGTAFTLRISRVEAEDVGVYYCMQHLEYPYTFGGGTKVEIK
notes: Mouse monoclonal antibody purified from hybridoma supernatant; An IgG2a isotype antibody served as its control; also called R2C7-1 mAb
Turning to B1, the binding result in test [1] is “no binding (tested: 20 (unit not printed on the sheet))”.

B2: R2C9-11 monoclonal antibody (antibody, V domains shown)
VH: QVQLQQPGAELVKPGASVKLSCKASGYTFTSYWMHWVKQRPGQGLEWIGEINPSNGRTNYNEKFKSKATLTVDKSSSTAYMQLSSLTSEDSAVYYCANLYFDVWGAGTTVTVSS
VL: DIVMTQSPSSLSVSAGEKVTMSCKSSQNLLNSGNQKYYLAWYQQKPGQPPKLLIYGASIRESGVPDRFIGSGSGTDFTLTISSVQAEDLAVYFCQSDHSYPYTFGGGTKLEIK
notes: Mouse monoclonal antibody purified from hybridoma supernatant; An IgG2a isotype antibody served as its control; also called R2C9-11 mAb
B2: the binding result in test [2] is on record as “no binding”.

Source of the values: US20210032353A1 (NATIONAL HEALTH RESEARCH INSTITUTES, published 2021).
